According to the supplement of paper PMC7125110:
± gives the standard error. For part of these data: Variants at the floor of the assay were thinned out.

B1: glmS ribozyme (parent)
chain: AUAAAAGCGCCAGAACUACAGAAAUGUAGUUGACGAGGAGGAGGUUUAUCGAAUUUUCGGCGGAUGCCUCCAAA

Assays:
Details in all cases: with glucosamine-6-phosphate
[1] = variants of: B1; assay: kcat; higher = faster cleavage; RNA array
In short: (§1)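 Barcoded glmS ribozyme variants on sequenced MiSeq chips were transcribed in situ by E. coli RNA polymerase and tracked through a hybridised Cy3 probe at 37 °C. Glucosamine-6-phosphate (40 μM to 10 mM) in HEPES/KCl/Mg(OAc)2 buffer was flowed in, and tiles were imaged over ~14 h. Signals were normalised to baseline and to non-cleaving reference variants; per-tile medians were fit to one- or two-exponential decays to give kobs. kcat and KM came from weighted Michaelis–Menten fits across concentrations.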

[2] = variants of: B1; assay: KM; higher = weaker cofactor use; RNA array
In short: as §1

[3] = variants of: B1; assay: self-cleavage kobs at 640 uM GlcN6P; higher = faster cleavage; RNA array
In short: as §1

[4] = variants of: B1; assay: self-cleavage kobs at 2500 uM GlcN6P; higher = faster cleavage; RNA array
In short: as §1

[5] = variants of: B1; assay: self-cleavage kobs at 10000 uM GlcN6P; higher = faster cleavage; RNA array
In short: as §1

[6] = variants of: B1; assay: self-cleavage kobs at 160 uM GlcN6P; higher = faster cleavage; RNA array
In short: as §1

[7] = variants of: B1; assay: self-cleavage kobs at 40 uM GlcN6P; higher = faster cleavage; RNA array
In short: as §1

Row | Variant | kcat [1] | KM [2] | self-cleavage kobs at 640 uM GlcN6P [3] | self-cleavage kobs at 2500 uM GlcN6P [4] | self-cleavage kobs at 10000 uM GlcN6P [5] | self-cleavage kobs at 160 uM GlcN6P [6] | self-cleavage kobs at 40 uM GlcN6P [7]
1 | A42U U55C | 0.000267 ± 2.5e-05 s⁻¹ | 1350 ± 250 µM | 8.56e-05 ± 9.8e-06 s⁻¹ | 0.000198 ± 3e-05 s⁻¹ | 0.000223 ± 3e-05 s⁻¹ | – | –
2 | U31A G32U | 0.00113 ± 0.00055 s⁻¹ | – | 6.96e-05 ± 1.7e-05 s⁻¹ | 0.000256 ± 4.4e-05 s⁻¹ | 0.0006 ± 0.00016 s⁻¹ | 4.59e-05 ± 2e-05 s⁻¹ | –
3 | A36U A64C | < 1e-05 s⁻¹ | – | – | < 1e-05 s⁻¹ | < 1e-05 s⁻¹ | < 1e-05 s⁻¹ | < 1e-05 s⁻¹
4 | A52U C71G | 9.41e-05 ± 6.3e-06 s⁻¹ | 1700 ± 380 µM | 3.14e-05 ± 1.3e-05 s⁻¹ | 5.28e-05 ± 9.2e-06 s⁻¹ | 8.19e-05 ± 1e-05 s⁻¹ | – | –
5 | A12U | 0.0933 ± 0.014 s⁻¹ | 1340 ± 230 µM | 0.0283 ± 0.0012 s⁻¹ | 0.049 ± 0.0042 s⁻¹ | 0.0963 ± 0.0052 s⁻¹ | 0.00899 ± 0.00054 s⁻¹ | 0.00275 ± 4.9e-05 s⁻¹
6 | C50A C68U | 1.77e-05 ± 3.7e-06 s⁻¹ | – | – | – | – | – | –
7 | G41U A52G | 0.000128 ± 2e-05 s⁻¹ | 1140 ± 560 µM | 3.83e-05 ± 8.7e-06 s⁻¹ | 0.000113 ± 1.3e-05 s⁻¹ | 0.000107 ± 1.1e-05 s⁻¹ | – | –
8 | G51A C68A | 2.97e-05 ± 4.5e-06 s⁻¹ | – | – | – | – | – | –
9 | G13A U54G | 0.000682 ± 7.9e-05 s⁻¹ | 2540 ± 550 µM | 0.000123 ± 2.4e-05 s⁻¹ | 0.000363 ± 6.1e-05 s⁻¹ | 0.000537 ± 7.4e-05 s⁻¹ | 5.52e-05 ± 1.8e-05 s⁻¹ | –
10 | A15U G40C | 0.000282 ± 2.6e-05 s⁻¹ | 1070 ± 230 µM | 0.00011 ± 1.4e-05 s⁻¹ | 0.000162 ± 3.3e-05 s⁻¹ | 0.000269 ± 3e-05 s⁻¹ | 3.7e-05 ± 1.5e-05 s⁻¹ | –
11 | C16A C70G | 4.18e-05 ± 5e-06 s⁻¹ | – | 3.86e-05 ± 1.5e-05 s⁻¹ | 5.28e-05 ± 1e-05 s⁻¹ | 3.56e-05 ± 7.5e-06 s⁻¹ | – | –
12 | G13C C16A | 0.000101 ± 1.7e-06 s⁻¹ | 712 ± 55 µM | 4.82e-05 ± 1.7e-05 s⁻¹ | 7.81e-05 ± 1.4e-05 s⁻¹ | 9.42e-05 ± 1.4e-05 s⁻¹ | – | –
13 | G59U G62U C67G | < 1e-05 s⁻¹ | – | – | – | – | < 1e-05 s⁻¹ | –
14 | C11A U31A | 0.00019 ± 2e-05 s⁻¹ | 1480 ± 350 µM | 5.42e-05 ± 1e-05 s⁻¹ | 0.000147 ± 2.8e-05 s⁻¹ | 0.000158 ± 2.3e-05 s⁻¹ | – | –
15 | A48C G66A | 0.000159 ± 2.8e-05 s⁻¹ | – | – | 8.27e-05 ± 1.8e-05 s⁻¹ | 0.000121 ± 1.4e-05 s⁻¹ | < 1e-05 s⁻¹ | –
16 | A6C G13A A36U U56G | < 1e-05 s⁻¹ | – | – | < 1e-05 s⁻¹ | – | – | < 1e-05 s⁻¹
17 | C16G U45G | 0.000908 ± 7.3e-05 s⁻¹ | 2510 ± 380 µM | 0.000199 ± 3.8e-05 s⁻¹ | 0.000466 ± 0.00011 s⁻¹ | 0.000718 ± 9.7e-05 s⁻¹ | 4.29e-05 ± 1.9e-05 s⁻¹ | –

Row | Variant | kcat [1] | KM [2] | self-cleavage kobs at 640 uM GlcN6P [3] | self-cleavage kobs at 2500 uM GlcN6P [4] | self-cleavage kobs at 10000 uM GlcN6P [5] | self-cleavage kobs at 160 uM GlcN6P [6] | self-cleavage kobs at 40 uM GlcN6P [7]
18 | C10U G29A | < 1e-05 s⁻¹ | – | – | – | < 1e-05 s⁻¹ | – | < 1e-05 s⁻¹
19 | U31C U57G C67A | < 1e-05 s⁻¹ | – | – | – | – | < 1e-05 s⁻¹ | –
20 | U69C C71U | 0.000591 ± 7.2e-05 s⁻¹ | 368 ± 88 µM | 0.000326 ± 9.3e-05 s⁻¹ | 0.000432 ± 9.4e-05 s⁻¹ | 0.000676 ± 0.00011 s⁻¹ | 0.000208 ± 5.6e-05 s⁻¹ | 5.8e-05 ± 1.1e-05 s⁻¹
21 | C16U C61A | 1.08e-05 ± 2.3e-06 s⁻¹ | – | – | – | – | – | –
22 | G38C C58G C70U | < 1e-05 s⁻¹ | – | – | – | – | – | –
23 | U30G G32A | 0.00542 ± 0.0022 s⁻¹ | 4720 ± 2300 µM | 0.000709 ± 9.2e-05 s⁻¹ | 0.00123 ± 0.0003 s⁻¹ | 0.00438 ± 0.00065 s⁻¹ | 0.00017 ± 2.3e-05 s⁻¹ | 5.91e-05 ± 1.1e-05 s⁻¹
24 | G38A G62U | < 1e-05 s⁻¹ | – | < 1e-05 s⁻¹ | – | – | – | –
25 | A39C U56G | 0.00414 ± 0.0013 s⁻¹ | 4460 ± 1800 µM | 0.000539 ± 6.5e-05 s⁻¹ | 0.00125 ± 0.00015 s⁻¹ | 0.00322 ± 0.00035 s⁻¹ | 0.000133 ± 1.4e-05 s⁻¹ | 5.55e-05 ± 7.3e-06 s⁻¹
26 | G29C U56G | 0.00345 ± 0.0011 s⁻¹ | 6770 ± 2600 µM | 0.000321 ± 6e-05 s⁻¹ | 0.00115 ± 0.00022 s⁻¹ | 0.00181 ± 0.00049 s⁻¹ | 7.08e-05 ± 1.4e-05 s⁻¹ | –
27 | U55G C70A | 0.000145 ± 2.6e-05 s⁻¹ | – | 0.00015 ± 3e-05 s⁻¹ | 0.000147 ± 2.4e-05 s⁻¹ | 0.000131 ± 2.6e-05 s⁻¹ | 5.52e-05 ± 1.4e-05 s⁻¹ | 5.03e-05 ± 1.3e-05 s⁻¹
28 | A12C C16A | 0.00127 ± 0.00038 s⁻¹ | 4920 ± 2400 µM | 0.000172 ± 2.7e-05 s⁻¹ | 0.000339 ± 5.1e-05 s⁻¹ | 0.000927 ± 9.9e-05 s⁻¹ | 6.12e-05 ± 1.6e-05 s⁻¹ | –
29 | G41A U47A | 0.000635 ± 9.4e-05 s⁻¹ | 282 ± 86 µM | 0.000573 ± 0.00011 s⁻¹ | 0.000608 ± 0.00018 s⁻¹ | 0.00055 ± 0.0001 s⁻¹ | – | 7.36e-05 ± 1.6e-05 s⁻¹
30 | C16U A42U | 0.000129 ± 1e-05 s⁻¹ | 903 ± 300 µM | 4.79e-05 ± 1.9e-05 s⁻¹ | 0.000107 ± 2.2e-05 s⁻¹ | 0.000115 ± 1.7e-05 s⁻¹ | – | –
31 | C11A A64G | 0.000168 ± 1.1e-05 s⁻¹ | 1190 ± 250 µM | 5.53e-05 ± 1.3e-05 s⁻¹ | 0.000135 ± 2.7e-05 s⁻¹ | 0.000147 ± 1.6e-05 s⁻¹ | – | –
32 | G32U A53C | 0.000282 ± 0.00012 s⁻¹ | – | 0.000104 ± 2.3e-05 s⁻¹ | 0.000105 ± 2.7e-05 s⁻¹ | 0.000275 ± 4.6e-05 s⁻¹ | – | –
33 | U46G C58A | 0.000164 ± 4e-05 s⁻¹ | – | – | 3.08e-05 ± 1.2e-05 s⁻¹ | 8.21e-05 ± 1.1e-05 s⁻¹ | – | < 1e-05 s⁻¹
